Measured values: paper PMC2900151 (Biochemistry, 2010)

Molecular target: T1, soluble recombinant human FGFR3c human-IgG chimeric protein (human, UniProt P22607 23-375)
T1 sequence (looked up): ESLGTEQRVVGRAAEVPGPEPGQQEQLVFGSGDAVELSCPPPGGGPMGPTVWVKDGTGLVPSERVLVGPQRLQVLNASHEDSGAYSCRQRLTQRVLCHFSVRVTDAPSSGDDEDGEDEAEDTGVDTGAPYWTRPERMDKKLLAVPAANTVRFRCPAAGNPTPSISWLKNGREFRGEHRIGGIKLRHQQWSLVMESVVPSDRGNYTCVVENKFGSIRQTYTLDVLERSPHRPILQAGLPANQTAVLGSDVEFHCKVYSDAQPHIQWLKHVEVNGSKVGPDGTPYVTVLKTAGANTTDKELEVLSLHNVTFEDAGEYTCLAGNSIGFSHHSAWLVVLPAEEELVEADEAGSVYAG
Test: ligand and carbohydrate engagement

B1: recombinant human FGF18 (ligand, UniProt O76093 28-207, looked up)
chain: EENVDFRIHVENQTRARDDVSRKQLRLYQLYSRTSGKHIQVLGRRISARGEDGDKYAQLLVETDTFGSQVRIKGKETEFYLCMNRKGKLVGKPDGTSKECVFIEKVLENNYTALMSAKYSGWYVGFTKKGRPRKGPKTRENQQDVHFMKRYPKGQPELQKPFKYTTVTKRSRRIRPTHPA
binding result: binds
